Data as given in US20110008376A1.

Tests used:
[1] = biological target: dH5-III (misfolded H5, about 16 h at 47.5 C) (influenza A virus H5N1 strain A/Vietnam/1203/04); experiment: ELISA, immobilized H5 form, normalized to cdH5-0
[2] = biological target: dH5-II (misfolded H5, heat cycling at pH 2) (influenza A virus H5N1 strain A/Vietnam/1203/04); experiment: ELISA, immobilized H5 form, normalized to cdH5-0
[3] = biological target: dH5-I (misfolded H5, heat cycling at pH 7) (influenza A virus H5N1 strain A/Vietnam/1203/04); experiment: ELISA, immobilized H5 form, normalized to cdH5-0
[4] = biological target: cdH5-0 (dH5-0 supernatant after 10 min at 16,000-18,000*g) (influenza A virus H5N1 strain A/Vietnam/1203/04); experiment: ELISA, immobilized H5 form, normalized to cdH5-0
[5] = biological target: fdH5-0 (ultrafiltrated dH5-0, flow-through of a 1,000 kDa cut-off filter) (influenza A virus H5N1 strain A/Vietnam/1203/04); experiment: ELISA, immobilized H5 form, normalized to cdH5-0
[6] = biological target: dH5-0 (hemagglutinin 5 of H5N1 strain A/Vietnam/1203/04 as supplied by Protein Sciences) (influenza A virus H5N1 strain A/Vietnam/1203/04); experiment: ELISA, immobilized H5 form, normalized to cdH5-0; average of two measurements
[7] = biological target: nOVA (untreated ovalbumin, 1 mg/ml in PBS) (chicken) (UniProt P01012); experiment: ELISA, immobilized OVA form, normalized to nOVA
UniProt P01012, sequence (P01012 2-386 limits assumed): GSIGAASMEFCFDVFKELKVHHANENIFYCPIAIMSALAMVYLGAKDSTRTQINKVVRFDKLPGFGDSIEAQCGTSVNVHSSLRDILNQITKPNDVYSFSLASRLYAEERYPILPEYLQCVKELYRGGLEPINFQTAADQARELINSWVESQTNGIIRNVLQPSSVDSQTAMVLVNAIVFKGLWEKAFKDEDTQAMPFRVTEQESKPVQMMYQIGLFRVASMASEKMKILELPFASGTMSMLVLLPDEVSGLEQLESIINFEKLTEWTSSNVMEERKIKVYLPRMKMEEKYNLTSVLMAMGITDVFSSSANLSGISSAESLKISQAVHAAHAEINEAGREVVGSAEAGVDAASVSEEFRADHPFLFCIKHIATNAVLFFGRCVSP

[8] = biological target: dH5-II (misfolded H5, heat cycling at pH 2) (influenza A virus H5N1 strain A/Vietnam/1203/04); experiment: ELISA, immobilized H5 form, excess epsilon-amino caproic acid
[9] = biological target: dH5-0 (hemagglutinin 5 of H5N1 strain A/Vietnam/1203/04 as supplied by Protein Sciences) (influenza A virus H5N1 strain A/Vietnam/1203/04); experiment: as above
[10] = biological target: cdH5-0 (dH5-0 supernatant after 10 min at 16,000-18,000*g) (influenza A virus H5N1 strain A/Vietnam/1203/04); experiment: as above
[11] = biological target: fdH5-0 (ultrafiltrated dH5-0, flow-through of a 1,000 kDa cut-off filter) (influenza A virus H5N1 strain A/Vietnam/1203/04); experiment: as above

Substance: fourth and fifth finger domain of fibronectin (Fn F4-5) (from UniProt P02751 183-274)
- Normalized affinity, kD (%) [1]: 6%
- Normalized affinity, kD (%) [2]: 88%
- Normalized affinity, kD (%) [3]: 0%
- Normalized affinity, kD (%) [4]: 100%
- Normalized affinity, kD (%) [5]: 69%
- Normalized affinity, kD (%) [6]: 103%
- Normalized affinity, kD (%) [7]: 100%

Substance: tissue type plasminogen activator (tPA) (from UniProt P00750 36-562) (enzyme)
- Bmax [8]: 0.07
- Kd [8]: 19 nM
- Bmax [9]: 0.32
- Kd [9]: 96 nM
- Bmax [10]: 0.36
- Kd [10]: 102 nM
- Bmax [11]: 0.37
- Kd [11]: 342 nM
